Data set [1] deals with G-actin (monomeric Ca2+-ATP-actin from rabbit skeleton muscle) (rabbit, UniProt P68135 1-377). The data set is described as follows: MST; peptides serially diluted and titrated into 10 uM LatB-actin; 50 mM Tris pH 7.4, 150 mM NaCl, 0.05% Tween 20; 22 °C; called label-free in the results. The note with it: both partners purified.
Data set [2] deals with the molecule itself. Put plainly: SEC; Superdex 200 Increase 10/300, 150 mM NaCl, against protein standards.
The target of data set [3] is F-actin (filaments assembled from rabbit skeleton muscle actin) (rabbit, UniProt P68135 1-377). The data set is described as follows: co-sedimentation; high speed (100,000 x g, 20 min, 25 °C); 2 uM F-actin with a range of concentrations of the MBP-msfGFP fusion; SDS-PAGE; Hill fit. The conditions noted are these: both partners purified.

B1: HH peptide (peptide)
peptide: SLRRLDLQLEEITRQCSDIQKQLFMEDRE
notes: XopR of Xcc, HH motif (extended helix and WH2 alpha-helix); also called CC; CC peptide; source: synthetic peptide (GL Biochem)
Consider B1, for which the Kd in data set [1] was determined as 73.9 ± 63 µM.

B2: Xcc XopR-FL (aa 1-411) (natural protein)
chain: MRLSQLFNSRHRVAPEPHGANPNKTTPLIPGASPQHPLSQAPKSTTSQGASKSHRGMLASARKSLASLRKQLPLTCMGSSPTLETVESPPAHTAAVTPGRTQQQHGTQARVDQRWQPPVPNATDHERVQRPQPQPQQTPPTRQSMSVPPKPARAQQLHGPQRPVDPRMQPPIPERMRRDEGQPPQHDKPASPPVPITPAQSSLPSPRPQPGRQPSLRRLDLQLEEITRQCSDIQKQLFMEDREATPQEQHLLKTRAALIAWRNEVRDSQLEALLVALAPMEDIRAPRTTSSGLAMVQMDAMQHNRREVLKARRKSVDRAALARNYARAQRRLESLKQGDAPKEQIRRLQRMMQGYQNMLALEQIVRSTDDQLERLGAPRLMSGIPTTAEQRRQSFEKERDAHQEAIDNGYY
notes: type III effector XopR of Xanthomonas campestris pv. campestris (Xcc) strain 8004, aa 1-411; The methods list a C-terminal His6-Flag form and a C-terminal mRuby2-His6-Flag form; also called full-length XopR; XopR full-length; source: E. coli BL21 (DE3) Rosetta, purified (HisTrap, gel filtration)
For the molecule B2, in data set [2], the “stoichiometry N” value is 3.

B3: WH2 peptide (peptide)
peptide: QCSDIQKQLFMEDREATPQEQHLLKTRAA
notes: XopR of Xcc, WH2-like motif without the extended helix; source: synthetic peptide (GL Biochem)
In data set [1], B3 returned a Kd greater than 100 µM.

B4: MBP-HH-msfGFP (domain or fragment)
chain: SLRRLDLQLEEITRQCSDIQKQLFMEDRE
notes: XopR of Xcc, HH motif; also called chimeric protein HH; source: E. coli BL21 (DE3) Rosetta, purified; not shown: MBP, N-terminal, kept; msfGFP, C-terminal, kept
On to B4, for which the Kd in data set [3] is 1.27 ± 0.05 µM.

B5: EHWH2 peptide (peptide)
peptide: SLRRLDLQLEEITRQCSDIQKQLFMEDREATPQEQHLLKTRAA
notes: XopR of Xcc, extended helix plus WH2-like motif; also called CCWH2; source: synthetic peptide (GL Biochem)
In data set [1], B5 displayed a Kd of 16.5 ± 4.53 µM.

B6: MBP-EHWH2-msfGFP (domain or fragment)
chain: SLRRLDLQLEEITRQCSDIQKQLFMEDREATPQEQHLLKTRAA
notes: XopR of Xcc, EHWH2 stretch; also called chimeric protein EHWH2; source: E. coli BL21 (DE3) Rosetta, purified; not shown: MBP, N-terminal, kept; msfGFP, C-terminal, kept
Consider B6, for which the equilibrium dissociation constant (Kd) in data set [3] came to 1 ± 0.06 µM.
